# Results reported in US20230079150A1, “METHODS FOR PREVENTION OR TREATMENT OF VIRUS-INDUCED ORGAN INJURY OR FAILURE WITH IL-22 DIMER” (priority 2020, published 2023).
# Tested on: C57BL/6 mice
# Assay: LPS acute lung injury mouse model: BAL inflammatory mediators (Milliplex cytokine panel)
# Type: in vivo
# Details: day 4
# Method: After approval from the Tulane University, Institutional Animal Care and Use Committee (protocol ID 607), equal numbers of male and female, 6-8 week old C57BL/6 mice (Charles River Laboratories, Cambridge, Mass.) were given acute lung injury (ALI) via intra-tracheally administered LPS. After obtaining appropriate depth of anesthesia using isoflurane, the high-dose LPS group (HDG) received 100 μg of LPS administered intra-tracheally. Approximately 30 minutes after LPS administration, 4 μg of F-652 was administered via tail vein injection (n=11), then compared to animals receiving sham injection (n=8) with phosphate-buffered saline (PBS). In the low-dose LPS group (LDG), 33.3 μg of LPS was administered intra-tracheally. F-652 was again administered at 30 minutes (n=9) and compared to sham injected animals (n=9). The Interleukin-22:Fc (F-652) protein is a recombinant fusion protein (F-652) (Evive Biotech, Shanghai, China) with two human IL-22 molecules linked to the Fc portion of human immunoglobulin G2, which extends the half-life of the molecule.
# Euthanasia and bronchoalveolar lavage (BAL) was carried out on post-injury day 4. After obtaining appropriate levels of anesthesia with inhaled isoflurane, the trachea was cannulated using a 26 gauge needle and BAL was performed with three successive washes using 1 mL of PBS. Next, a small segment of the left lower lobe was removed and saved for RNA isolation. Finally, 1 cc of 4% paraformaldehyde was injected to the lung for fixation.
# The BAL fluid was then centrifuged at 500×gravity for 5 minutes. Cells were obtained from the BAL after centrifuge and cell counts performed. Cells were then affixed to glass slides and stained with Wright's stain. To quantify protein in the BAL supernatant, a Bradford protein assay (Bio-Rad Laboratories) was performed. Protein was quantified by measuring absorbance at 595 nm on a BMG Labtech FLUOstar Optima plate reader. In addition, the BAL supernatant was used to measure pro-inflammatory cytokines using a Milliplex Mouse Cytokine/Chemokine Magnetic Bead Panel (Millipore Sigma). The 32 cytokines measured included Eotaxin, Granulocyte Colony-Stimulating Factor (G-CSF), Granulocyte-Monocyte Colony-Stimulating Factor (GM-CSF), Interferon-γ (IFN-γ), Interleukin-1α (IL-1α), IL-1, IL-2, IL-3, IL-4, IL-5, IL-6, IL-7, IL-9, IL-10, IL-12 (p40 segment), IL-12 (p70 segment), IL-13, IL-15, IL-17, Interferon-γ induced protein 10 (IP-10), keratinocyte chemoattractant (KC), leukemia inhibitory factor (LIF), lipopolysaccharide-induced CXC chemokine (LIX), monocyte chemoattractant protein-1 (MCP-1), macrophage colony-stimulating factor (M-CSF), monokine induced by gamma-interferon (MIG), MIP-1α, macrophage inflammatory protein-1β/CCL4 (MIP-1β), MIP-2, regulated upon activation, normal T-cell expressed and presumably secreted (RANTES), tumor necrosis factor-α (TNF-α), vascular endothelial growth factor (VEGF). Human IL-22 was measured using an IL-22 Human ELISA kit (ThermoFisher Scientific). Mouse IL-22 was measured using an IL-22 Mouse/Rat Quantikine ELISA kit (R&D Systems).
molecule,measurement,setting,value
"F-652: recombinant IL-22 dimer consisting of two monomeric subunits each comprising a sequence shown in SEQ ID NO: 24 (protein, homodimer) chain 1: APISSHCRLDKSNFQQPYITNRTFMLAKEASLADNNTDVRLIGEKLFHGVSMSERCYLMKQVLNFTLEEVLFPQSDRFQPYMQEVVPFLARLSNRLSTCHIEGDDLHIQRNVQKLKDTVKKLGESGEIKAIGELDLLFMSLRNACIGSGGGSGGGGSGGGGSVECPPCPAPPVAGPSVFLFPPKPKDTLMISRTPEVTCVVVDVSHEDPEVQFNWYVDGVEVHNAKTKPREEQFNSTFRVVSVLTVVHQDWLNGKEYKCKVSNKGLPASIEKTISKTKGQPREPQVYTLPPSREEMTKNQVSLTCLVKGFYPSDIAVEWESNGQPENNYKTTPPMLDSDGSFFLYSKLTVDKSRWQQGNVFSCSVMHEALHNHYTQKSLSLSPGK chain 2: APISSHCRLDKSNFQQPYITNRTFMLAKEASLADNNTDVRLIGEKLFHGVSMSERCYLMKQVLNFTLEEVLFPQSDRFQPYMQEVVPFLARLSNRLSTCHIEGDDLHIQRNVQKLKDTVKKLGESGEIKAIGELDLLFMSLRNACIGSGGGSGGGGSGGGGSVECPPCPAPPVAGPSVFLFPPKPKDTLMISRTPEVTCVVVDVSHEDPEVQFNWYVDGVEVHNAKTKPREEQFNSTFRVVSVLTVVHQDWLNGKEYKCKVSNKGLPASIEKTISKTKGQPREPQVYTLPPSREEMTKNQVSLTCLVKGFYPSDIAVEWESNGQPENNYKTTPPMLDSDGSFFLYSKLTVDKSRWQQGNVFSCSVMHEALHNHYTQKSLSLSPGK",C-X-C Motif Chemokine 5 (LIX) in BAL,"high dose LPS, F-652 4 μg i.v.",0.00 ± 0.00 pg/mL
same,Eotaxin in BAL,"high dose LPS, F-652 4 μg i.v.",4.63 ± 2.43 pg/mL
same,Granulocyte-Macrophage Colony-Stimulating Factor in BAL,"high dose LPS, F-652 4 μg i.v.",0.00 ± 0.00 pg/mL
same,Interferon-γ in BAL,"high dose LPS, F-652 4 μg i.v.",8.08 ± 2.18 pg/mL
same,Interferon-γ-Induced Protein-10 in BAL,"high dose LPS, F-652 4 μg i.v.",118.40 ± 43.72 pg/mL
same,Interleukin-1α in BAL,"high dose LPS, F-652 4 μg i.v.",69.39 ± 5.91 pg/mL
same,Interleukin-1β in BAL,"high dose LPS, F-652 4 μg i.v.",3.48 ± 1.25 pg/mL
same,Interleukin-2 in BAL,"high dose LPS, F-652 4 μg i.v.",7.33 ± 0.83 pg/mL
same,Interleukin-3 in BAL,"high dose LPS, F-652 4 μg i.v.",1.07 ± 0.02 pg/mL
same,Interleukin-4 in BAL,"high dose LPS, F-652 4 μg i.v.",1.09 ± 0.09 pg/mL
same,Interleukin-5 in BAL,"high dose LPS, F-652 4 μg i.v.",7.86 ± 1.14 pg/mL
same,Interleukin-7 in BAL,"high dose LPS, F-652 4 μg i.v.",1.75 ± 0.18 pg/mL
same,Interleukin-9 in BAL,"high dose LPS, F-652 4 μg i.v.",311.8 ± 38.17 pg/mL
same,Interleukin-12 (p40) in BAL,"high dose LPS, F-652 4 μg i.v.",7.13 ± 1.89 pg/mL
same,Interleukin-12 (p70) in BAL,"high dose LPS, F-652 4 μg i.v.",1.95 ± 1.00 pg/mL
same,Interleukin-13 in BAL,"high dose LPS, F-652 4 μg i.v.",10.56 ± 1.49 pg/mL
same,Interleukin-15 in BAL,"high dose LPS, F-652 4 μg i.v.",6.10 ± 1.02 pg/mL
same,Interleukin-17 in BAL,"high dose LPS, F-652 4 μg i.v.",2.28 ± 0.56 pg/mL
same,Keratinocyte Chemoattractant/Growth Regulated Oncogene in BAL,"high dose LPS, F-652 4 μg i.v.",19.54 ± 3.08 pg/mL
same,Macrophage Colony-Stimulating Factor in BAL,"high dose LPS, F-652 4 μg i.v.",2.89 ± 1.02 pg/mL
same,Macrophage Inflammatory Protein-1α in BAL,"high dose LPS, F-652 4 μg i.v.",45.99 ± 7.56 pg/mL
same,Macrophage Inflammatory Protein-1β in BAL,"high dose LPS, F-652 4 μg i.v.",19.42 ± 7.63 pg/mL
same,Macrophage Inflammatory Protein-2 in BAL,"high dose LPS, F-652 4 μg i.v.",28.63 ± 5.43 pg/mL
same,Monocyte Chemoattractant Protein in BAL,"high dose LPS, F-652 4 μg i.v.",14.66 ± 7.16 pg/mL
same,Monocyte Induced by Interferon-γ in BAL,"high dose LPS, F-652 4 μg i.v.",100.60 ± 35.47 pg/mL
same,Vascular Endothelial Growth Factor in BAL,"high dose LPS, F-652 4 μg i.v.",12.18 ± 3.03 pg/mL
same,Interleukin-10 level in BAL fluid,"high-dose LPS, F-652 4 μg tail vein, sham 4.05",22.10 pg/mL
same,TNF-α level in BAL fluid,"high-dose LPS, F-652 4 μg tail vein, sham 25.41",5.87 pg/mL
same,IL-6 level in BAL fluid,"high-dose LPS, F-652 4 μg tail vein, sham 527.1",110.6 pg/mL
same,G-CSF level in BAL fluid,"high-dose LPS, F-652 4 μg tail vein, sham 659.6",95.14
same,C-X-C Motif Chemokine 5 (LIX) in BAL,"low dose LPS, F-652 4 μg i.v.",9.27 ± 6.04 pg/mL
same,Eotaxin in BAL,"low dose LPS, F-652 4 μg i.v.",2.59 ± 1.93 pg/mL
same,Granulocyte Colony-Stimulating Factor in BAL,"low dose LPS, F-652 4 μg i.v.",23.49 ± 9.15 pg/mL
same,Granulocyte-Macrophage Colony-Stimulating Factor in BAL,"low dose LPS, F-652 4 μg i.v.",0.00 ± 0.00 pg/mL
same,Interferon-γ in BAL,"low dose LPS, F-652 4 μg i.v.",1.15 ± 0.42 pg/mL
same,Interferon-γ-Induced Protein-10 in BAL,"low dose LPS, F-652 4 μg i.v.",12.94 ± 3.54 pg/mL
same,Interleukin-1α in BAL,"low dose LPS, F-652 4 μg i.v.",61.31 ± 12.36 pg/mL
same,Interleukin-1β in BAL,"low dose LPS, F-652 4 μg i.v.",0.01 ± 0.01 pg/mL
